Results on 1 substance are retold here after PMC6070508.

Experiment [1] deals with 2:1 8D6 Fab/IgE-Fc complex. Kind of experiment: SPR; IgE-Fc captured on an 8D6 Fab surface, then saturated with 100 nM 8D6 Fab (2:1 8D6 Fab/IgE-Fc complex); derCD23 injected at 10 to 0.156 uM; HBS-P with 5 mM CaCl2, 25 °C. For orientation: SPR reads the build-up and loss of mass on a sensor chip optically.
Experiment [2] has as its target 1:1 8D6 Fab/IgE-Fc complex. Nature of the experiment: SPR; IgE-Fc captured on an 8D6 Fab surface (1:1 8D6 Fab/IgE-Fc complex); derCD23 injected at 10 to 0.156 uM; HBS-P with 5 mM CaCl2, 25 °C.

Chain of 1:1 8D6 Fab/IgE-Fc complex (heavy, as listed by the source, chain 1 of 2): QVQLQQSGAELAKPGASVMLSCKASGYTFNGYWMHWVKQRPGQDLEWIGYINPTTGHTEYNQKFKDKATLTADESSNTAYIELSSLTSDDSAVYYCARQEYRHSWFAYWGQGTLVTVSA
Chain of 1:1 8D6 Fab/IgE-Fc complex (light, as listed by the source, chain 2 of 2): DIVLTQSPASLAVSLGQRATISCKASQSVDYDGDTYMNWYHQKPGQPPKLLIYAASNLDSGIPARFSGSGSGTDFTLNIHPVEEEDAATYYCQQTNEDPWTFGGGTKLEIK
Chain of 2:1 8D6 Fab/IgE-Fc complex (heavy, as listed by the source, chain 1 of 2): as the sequence (heavy, as listed by the source, chain 1 of 2) above
Chain of 2:1 8D6 Fab/IgE-Fc complex (light, as listed by the source, chain 2 of 2): as the sequence (light, as listed by the source, chain 2 of 2) above

As a reminder, the Kd is the equilibrium constant for the complex coming apart. A lower Kd goes with higher affinity. As for derCD23 (domain or fragment), the Kd in experiment [1] and in experiment [2] was 1700 nM each time.
